In assay [1] the target is recombinant human OX40 (Acro Biosystems, cat. no. OXO-H5224) (human) (UniProt P43489). The assay can be described thus: BLI, Ab on AHC sensor, OX40 analyte.
Assay [2] addresses human OX40, cell surface-expressed (human) (UniProt P43489). The assay can be described thus: flow cytometry, HEK293F cells with human OX40. (In flow cytometry, cells or beads pass a laser one at a time.)
For assay [3] the target is unchanged. The assay can be described thus: flow cytometry, ExpiCHO-S cells with human OX40.
Assay [4] has as its target recombinant human OX40 (Acro Biosystems, cat. no. OXO-H5224) (human) (UniProt P43489). The assay is described as follows: BLI cross-block; competitor (immobilized 1st Ab): IgG1-CD134-003.
For assay [5] the target is unchanged. The assay can be described thus: BLI cross-block; competitor (immobilized 1st Ab): IgG1-CD134-007.
Assay [6] has the same target. The assay is described as follows: BLI cross-block; competitor (immobilized 1st Ab): IgG1-CD134-012.
For assay [7] the target is unchanged. The assay is described as follows: BLI cross-block; competitor (immobilized 1st Ab): IgG1-CD134-SF2.
The target is the same in assay [8]. The assay is described as follows: BLI cross-block; competitor (immobilized 1st Ab): IgG1-CD134-11D4.
The target is the same in assay [9]. The assay can be described thus: BLI cross-block; competitor (immobilized 1st Ab): IgG1-CD134-h3C8.
Assay [10] shares this target. The assay is described as follows: BLI cross-block; competitor (immobilized 1st Ab): IgG1-CD134-A4453.
Assay [11] has the same target. The assay is described as follows: BLI cross-block; competitor (immobilized 1st Ab): IgG1-CD134-Hu106.
Assay [12] has as its target cynomolgus monkey OX40, cell surface-expressed (cynomolgus monkey). The assay is described as follows: flow cytometry, HEK293F cells with cynomolgus monkey OX40.
The target in assay [13] is recombinant human OX40 (Acro Biosystems, cat. no. OXO-H5224) (human) (UniProt P43489). The assay can be described thus: BLI cross-block; competitor (immobilized 1st Ab): IgG1-CD134-GBR830.
The target is the same in assay [14]. The assay can be described thus: BLI cross-block; competitor (immobilized 1st Ab): IgG1-CD134-IBI101.
For assay [15] the target is unchanged. The assay can be described thus: BLI cross-block; competitor (immobilized 1st Ab): IgG1-CD134-RG7888.
Assay [16] shares this target. The assay can be described thus: BLI cross-block; competitor (immobilized 1st Ab): IgG1-CD134-ABBV368.
The target is the same in assay [17]. The assay is described as follows: BLI cross-block; competitor (immobilized 1st Ab): IgG1-CD134-49B4-RRE.
Assay [18] has the same target. The assay can be described thus: BLI cross-block; competitor (immobilized 1st Ab): IgG1-CD134-MEDI0562.
Assay [19] shares this target. The assay is described as follows: BLI cross-block; competitor (immobilized 1st Ab): IgG1-CD134-INCAGN1949.
Assay [20] deals with recombinant cynomolgus monkey OX40 (Acro Biosystems, cat. no. OXO-C5220) (cynomolgus monkey). The assay can be described thus: BLI, Ab on AHC sensor, OX40 analyte; * binding observed, less reliable fit. In general terms: In BLI a coated tip is dipped into the sample, and binding shifts an interference pattern.
Sequence of recombinant cynomolgus monkey OX40 (Acro Biosystems, cat. no. OXO-C5220) (cynomolgus monkey) (P43489 other isoform, or with tags, fused parts or gaps limits assumed): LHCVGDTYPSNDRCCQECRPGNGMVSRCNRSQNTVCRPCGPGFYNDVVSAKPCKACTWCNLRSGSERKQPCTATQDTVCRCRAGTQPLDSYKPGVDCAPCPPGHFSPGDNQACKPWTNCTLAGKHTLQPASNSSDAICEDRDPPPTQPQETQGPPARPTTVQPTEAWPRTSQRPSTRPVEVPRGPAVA
The target of assay [21] is recombinant human OX40 (Acro Biosystems, cat. no. OXO-H5224) (human) (UniProt P43489). The assay can be described thus: BLI cross-block; competitor (immobilized 1st Ab): IgG1-CD134-003-HC6LC2-RR.
Assay [22] deals with human OX40 with mouse CRD1 (human with mouse CRD1) (UniProt P43489). The assay can be described thus: flow cytometry, ExpiCHO-S cells with human OX40 carrying mouse CRD1.
Sequence of human OX40 with mouse CRD1 (human with mouse CRD1) (P43489 other isoform, or with tags, fused parts or gaps limits assumed): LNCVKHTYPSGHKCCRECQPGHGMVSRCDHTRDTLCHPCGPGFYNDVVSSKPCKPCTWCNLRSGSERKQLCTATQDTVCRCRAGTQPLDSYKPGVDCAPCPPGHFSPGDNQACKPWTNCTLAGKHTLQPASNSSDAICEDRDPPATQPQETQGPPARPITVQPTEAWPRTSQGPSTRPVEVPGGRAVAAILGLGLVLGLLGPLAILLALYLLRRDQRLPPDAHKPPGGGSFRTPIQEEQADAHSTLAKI
Assay [23] addresses human OX40 with mouse CRD4 (human with mouse CRD4) (UniProt P43489). The assay is described as follows: flow cytometry, ExpiCHO-S cells with human OX40 carrying mouse CRD4.
For assay [24], the target named is human FcγRIa, cell surface-expressed (human) (UniProt P12314). The assay can be described thus: flow cytometry, ExpiCHO-S cells transfected with human FcγRIa.
Sequence of human FcγRIa, cell surface-expressed (human) (P12314 16-374): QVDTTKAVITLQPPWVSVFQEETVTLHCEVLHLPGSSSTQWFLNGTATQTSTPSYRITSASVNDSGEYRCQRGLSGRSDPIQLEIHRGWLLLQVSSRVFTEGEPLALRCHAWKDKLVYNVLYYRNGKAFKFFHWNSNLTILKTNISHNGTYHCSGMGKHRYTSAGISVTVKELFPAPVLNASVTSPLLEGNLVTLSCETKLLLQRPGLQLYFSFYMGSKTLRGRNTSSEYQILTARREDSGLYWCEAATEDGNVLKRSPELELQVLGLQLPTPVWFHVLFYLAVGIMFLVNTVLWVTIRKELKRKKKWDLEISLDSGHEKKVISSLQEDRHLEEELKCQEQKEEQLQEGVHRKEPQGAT
For assay [25], the target named is His-tagged human recombinant FcγRIa (human) (UniProt P12314). The assay can be described thus: SPR, His-tagged FcγRIa captured on an anti-His chip, antibody injected.
Sequence of His-tagged human recombinant FcγRIa (human) (P12314 16-288 limits assumed): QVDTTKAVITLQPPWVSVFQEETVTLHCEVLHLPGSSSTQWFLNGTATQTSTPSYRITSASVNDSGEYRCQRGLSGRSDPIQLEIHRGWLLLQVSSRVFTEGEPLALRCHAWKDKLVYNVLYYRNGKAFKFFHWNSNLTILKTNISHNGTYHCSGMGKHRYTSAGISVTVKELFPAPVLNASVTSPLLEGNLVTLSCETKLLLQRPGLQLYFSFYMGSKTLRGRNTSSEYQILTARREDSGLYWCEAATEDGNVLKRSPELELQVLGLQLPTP
The target in assay [26] is human OX40 with mouse CRD3 (human with mouse CRD3) (UniProt P43489). The assay can be described thus: flow cytometry, ExpiCHO-S cells with human OX40 carrying mouse CRD3.
Sequence of human OX40 with mouse CRD3 (human with mouse CRD3) (P43489 other isoform, or with tags, fused parts or gaps limits assumed): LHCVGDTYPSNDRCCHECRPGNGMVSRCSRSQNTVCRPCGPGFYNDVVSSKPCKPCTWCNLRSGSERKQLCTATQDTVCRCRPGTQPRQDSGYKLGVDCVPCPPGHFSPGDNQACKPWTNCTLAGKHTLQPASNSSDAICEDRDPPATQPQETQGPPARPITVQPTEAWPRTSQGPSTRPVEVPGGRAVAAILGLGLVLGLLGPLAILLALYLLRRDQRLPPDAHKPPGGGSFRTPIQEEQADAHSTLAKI
Assay [27] concerns the target human OX40, cell surface-expressed (human) (UniProt P43489). The assay is described as follows: flow cytometry, activated CD4+ T cells, donor 1.
The target is the same in assay [28]. The assay is described as follows: flow cytometry, activated CD4+ T cells, donor 2.
For assay [29] the target is unchanged. The assay can be described thus: flow cytometry, activated CD4+ T cells, donor 3.
Assay [30] shares this target. The assay is described as follows: flow cytometry, activated CD8+ T cells, donor 1.
The target is the same in assay [31]. The assay can be described thus: flow cytometry, activated CD8+ T cells, donor 2.
Assay [32] has the same target. The assay is described as follows: flow cytometry, activated CD8+ T cells, donor 3.
Assay [33] has the same target. The assay can be described thus: flow cytometry, activated CD4+ T cells, mean of 3 donors.
For assay [34] the target is unchanged. The assay is described as follows: flow cytometry, activated CD8+ T cells, mean of 3 donors.

Sequence of cynomolgus monkey OX40, cell surface-expressed (cynomolgus monkey) (P43489 other isoform, or with tags, fused parts or gaps limits assumed): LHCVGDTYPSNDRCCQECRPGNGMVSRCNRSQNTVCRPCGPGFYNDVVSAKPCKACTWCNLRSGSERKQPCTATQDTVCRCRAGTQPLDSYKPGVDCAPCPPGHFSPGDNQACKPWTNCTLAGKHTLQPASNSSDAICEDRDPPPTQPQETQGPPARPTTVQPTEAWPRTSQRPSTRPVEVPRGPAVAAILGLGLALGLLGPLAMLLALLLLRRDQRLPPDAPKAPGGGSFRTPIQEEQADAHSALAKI
Sequence of recombinant human OX40 (Acro Biosystems, cat. no. OXO-H5224) (human) (P43489 29-216 limits assumed): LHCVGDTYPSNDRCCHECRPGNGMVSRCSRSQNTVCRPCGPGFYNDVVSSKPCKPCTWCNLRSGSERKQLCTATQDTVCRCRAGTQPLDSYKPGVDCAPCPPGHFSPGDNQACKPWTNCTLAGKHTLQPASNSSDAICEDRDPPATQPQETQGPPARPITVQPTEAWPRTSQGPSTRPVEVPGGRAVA
Sequence of human OX40, cell surface-expressed (human) (P43489 29-277): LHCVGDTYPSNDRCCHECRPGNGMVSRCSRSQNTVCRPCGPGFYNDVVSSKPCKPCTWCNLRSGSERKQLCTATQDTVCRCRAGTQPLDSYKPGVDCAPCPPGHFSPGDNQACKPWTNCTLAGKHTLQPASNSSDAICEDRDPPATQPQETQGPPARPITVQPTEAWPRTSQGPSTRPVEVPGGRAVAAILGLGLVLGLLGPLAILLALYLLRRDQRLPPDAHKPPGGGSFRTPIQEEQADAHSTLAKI
Sequence of IgG1-CD134-IBI101 (antibody) (VH): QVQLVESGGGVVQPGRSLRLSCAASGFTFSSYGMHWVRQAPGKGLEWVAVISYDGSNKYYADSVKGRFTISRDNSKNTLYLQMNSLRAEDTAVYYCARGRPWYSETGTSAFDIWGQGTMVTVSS
Sequence of IgG1-CD134-IBI101 (antibody) (VL): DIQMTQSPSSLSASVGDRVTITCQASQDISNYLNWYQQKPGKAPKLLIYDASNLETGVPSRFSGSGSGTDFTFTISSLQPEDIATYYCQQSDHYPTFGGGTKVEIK
Sequence of human OX40 with mouse CRD4 (human with mouse CRD4) (P43489 other isoform, or with tags, fused parts or gaps limits assumed): as the sequence (P43489 29-277) above, with D109N, A122S, H125Q, L127R, Q128H, N132D, S134L, I137V counted along it

As a reminder, the Kd is the free concentration of one partner at which half of the binding sites on the other are occupied at equilibrium, for simple one-to-one binding. By EC50 (read off the curve) is commonly meant the concentration that produces a half-maximal response. On to IgG1-CD134-INCAGN1949 (antibody), for which the dissociation constant (Kd) is 160 nM in [1] and 230 nM in [20]. Also, the half-maximal effective concentration (EC50 (read off the curve)) in assay [2] is 0.06 µg/mL; in assay [3] it was 0.07 µg/mL; in assay [12] it was 0.1 µg/mL; in assay [22], 0.08 µg/mL; in assay [23], 0.08 µg/mL. Moreover, the corrected association response in assay [4] was 1.39 nm; in assay [5], 0.55 nm; in assay [6], 0.73 nm; in assay [7], 0.02 nm; in [8], 0.11 nm; in assay [9], -0.02 nm. The corrected association response in assay [10] is 0.25 nm; in assay [11], -0.01 nm; in [13], 0.01 nm; in assay [14] it was 0.01 nm; in [15], 0.01 nm; in assay [16], -0.03 nm. The corrected association response in assay [17] is 0 nm; in [18], 0.01 nm; in assay [19], 0 nm; in assay [21] it was 1.74 nm.
Consider “IgG1-CD134-RG7888-K322A-E345R (antibody)”, for which the EC50 (read off the curve) in assay [24] came to 0.6 µg/mL; in assay [25], 30 nM.
What is called koff is a measure of how fast the partners let go of each other. In general, kon refers to a measure of how fast the partners come together. As to IgG1-CD134-Hu106 (antibody), the results for the Kd in assay [1] and in [20] were 9.3 nM and 240 nM, respectively. In addition, the koff in assay [1] is 0.0024 s⁻¹; in [20], 0.029 s⁻¹. The on-rate (kon) in assay [1] is 260000 M⁻¹ s⁻¹; in [20], 120000 M⁻¹ s⁻¹. Further, the half-maximal effective concentration (EC50 (read off the curve)) was found to be 0.08 µg/mL in assay [2]; 0.05 µg/mL in [3]; 0.06 µg/mL in assay [12]; 0.06 µg/mL in assay [22]; 0.06 µg/mL in assay [26]; 0.06 µg/mL in assay [23]. Besides, the corrected association response worked out at 1.06 nm in assay [4]; 0.05 nm in assay [5]; 0.8 nm in [6]; 0.03 nm in assay [7]; 0.13 nm in assay [8]; 0.01 nm in [9]. The corrected association response in assay [10] was 0.29 nm; in assay [11], 0.05 nm; in assay [13] it was 0.01 nm; in [14] it was 0.01 nm; in assay [15] it was 0.02 nm; in assay [16] it was -0.01 nm. Further, the corrected association response in assay [17] was -0.01 nm; in assay [18] it was 0.31 nm; in assay [19] it was 0 nm; in [21], 1.39 nm.
The EC50 is the concentration giving half of the maximal effect. In the case of IgG1-CD134-IBI101 (antibody), the dissociation constant (Kd) in assay [1] amounted to 53 nM; in [20], 400 nM. Also, the half-maximal effective concentration (EC50) in assay [27] is 0.101 µg/mL; in assay [28], 0.1 µg/mL; in [29], 0.111 µg/mL; in assay [30], 0.128 µg/mL; in [31], 1.86 µg/mL; in assay [32], 0.192 µg/mL. Besides, the concentration giving a half-maximal response (EC50) in assay [33] is 0.104 µg/mL; in assay [34], 0.727 µg/mL. Moreover, the EC50 (read off the curve) was found to be 0.09 µg/mL in assay [2], 0.08 µg/mL in assay [12], 0.08 µg/mL in [22] and 0.06 µg/mL in assay [26]. For the same substance, the corrected association response was 0.74 nm in assay [4]; 0.02 nm in assay [5]; 0.82 nm in [6]; 0.07 nm in assay [7]; 0.15 nm in assay [8]; -0.03 nm in assay [9]. Also, the corrected association response in [10] was 0.24 nm; in assay [11], -0.02 nm; in assay [13] it was 0.01 nm; in assay [14], 0.01 nm; in assay [15], 0.31 nm; in assay [16], -0.02 nm. Moreover, the corrected association response is 0 nm in [17], 0.26 nm in assay [18], 0.02 nm in [19] and 1.23 nm in assay [21].

The values are drawn from patent publication US20240376221A1.
